The values below come from PMC4775219 (eLife, 2016).

The target in this experiment is T1, Full-length H-Ras (SNAPtag-(GAGS)2x-MBP-H-Ras-DoubleHisTag) (human, UniProt P01112 1-189, SNAP-Cell 430 dye on the SNAP-tag).
T1 construct: H-Ras GTPase, human, full length; loaded with GDP or GTP as the experiment says; Held on Ni beads by the C-terminal double His tag; The nucleotide state (GDP or GTP) is a condition of the assay; also called wild-type Ras; WT Ras; source: E. coli BL21(T1R), purified (Ni-NTA, amylose, gel filtration Superdex S200); not shown: SNAP-tag, N-terminal, kept; DoubleHisTag (10xHis-(GAGS)3x-6xHis), …
Nature of the experiment: recruitment of fluorescent effector to Ras-loaded beads, spinning disk confocal microscopy; two competing effectors, each with its own fluorophore, in equivalent amounts on the same Ras-loaded beads; 2 uM RasGRF GEF step input, 5 mM GTP; GAP-free or with NF1-GAP. The note with it: both partners purified.

B1: RBD from the A-Raf kinase (SNAPtag-(GAGS)2x-MBP-ARafRBD-StrepII) (domain or fragment, UniProt P10398 19-91, looked up)
chain: GTVKVYLPNKQRTVVTVRDGMSVYDSLDKALKVRGLNQDCCVVYRLIKGRKTVTAWDTAIAPLDGEELIVEVL
modifications: SNAP-Surface 488 or SNAP-Surface 549 dye on the SNAP-tag
notes: source: E. coli BL21(T1R), purified (Streptactin, amylose, gel filtration Superdex S75); not shown: SNAP-tag, N-terminal, kept
Consider B1, for which the “output amplitude, fold lower than C-Raf RBD (GAP-free two-effector network)” value was found to be 20 times lower.
